Broadly, the Km is the substrate concentration at which the rate is half of its maximum.

Entries after “also recorded” stand apart in the source; their conditions may differ. Read-outs that look alike come from different tables or passages of the source.

Data set [1] can be described thus: Heparin lyase activity: effect of divalent metals and added salt, substrate specificity (each lyase on its substrates). The format is biochemical. The note with it: for effect of added salt on activity: increasing salt concentration, 0-500 mM. As for the experimental part:
The spectrophotometer was adjusted to the optimum temperature of the particular lyase being assayed. A 700 μl quartz microcuvette containing 400 μg of substrate in 50 mM sodium phosphate buffer (containing 100 mM sodium chloride for heparin lyase I) was thermally equilibrated. A measured quantity of lyase was added, bringing the final volume to 400 μl and the cuvette was gently mixed. The microcuvette was then immediately returned to the spectrophotometer and the change of absorbance at 232 nm was measured at 10 seconds intervals over 3 min. The activity was measured from the change of absorbance/unit time using an extinction coefficient of 3800 M^−1 for products. The specific activity was then calculated by dividing the micromoles of product produced per minute by the milligrams of protein in the cuvette. The molecular weights used for heparin, heparan sulfate, and the chondroitin sulfates were 14,000, 20,000 and 25,000, respectively, Rice, K. G., and Linhardt, R. J. (1989) Carbohydr. Res. 190, 219-233. Protein concentration was measured by the Bradford assay, Bradford, M. M. (1976) Anal. Biochem. 72, 248-254, based on a bovine serum albumin standard curve.
BTP-HCl buffer (50 mM) was prepared containing either 10 mM calcium chloride, 10 μM or 1 mM copper (II) chloride, 10 μM and 1 mM mercury (II) chloride, and 1 mM zinc (II) chloride. Each solution was adjusted to the optimum pH for the lyase being tested, and the activity of the heparin lyases was measured in the presence and absence of divalent metals.
The salt concentration for optimum activity was investigated. Sodium chloride, potassium chloride, and sodium and potassium acetate were used to differentiate between ionic strength and specific ion affects. Added salt concentrations varied between 0 and 500 mM and were prepared in 50 mM sodium phosphate buffer after which the pH was adjusted to each enzyme's optimum and the heparin lyase activity was measured.
Each heparin lyase was added to a solution of complex polysaccharides (1 mg/ml) under optimized assay conditions, and the reaction was monitored at 232 nm for 30 min. The amount of purified lyase used was sufficient for complete depolymerization of heparin or heparan sulfate substrates within 30 min. The initial rate of depolymerization of each polysaccharide was measured, the reaction was then continued for 24 h, and the final level of polysaccharide depolymerization was assessed by measuring the final absorbance at 232 nm and expressed as percent activity.

The nature of data set [2]: Temperature stability of lyase activity. The format is physicochemical. Particulars: 25 h at 35° C., protein 1-2 μg/ml, on both heparin and heparan sulfate. As for the experimental part:
Lyase assay stock solutions were prepared in the appropriate buffer and placed in water baths at the following temperatures: heparin lyase I at 30° C., heparin lyase II at 35° C., and heparin lyase III at both 35° and 40° C. […]

Data set [3] can be described thus: Isoelectric focusing on agarose gel. The note with it: agarose IEF. The format is physicochemical. As for the experimental part:
IEF gel electrophoresis was run on pre-cast agarose gels (85×100 mm). Two electrode wicks were wetted with 1M phosphoric acid (anolyte) and 1M sodium hydroxide (catholyte). Electrophoresis was at 5 watts for 5 min, then at 10 watts for 1 h until the voltage was constant at 1200 V. The gel was immediately fixed in 15% aqueous trichloroacetic acid, blotted and rinsed with water, dried overnight, stained by using Coomassie G-250, and destained.

A short description of data set [4]: Heparin lyase activity assay (change of absorbance at 232 nm), heparan sulfate as substrate. The format is biochemical. As for the experimental part:
The spectrophotometer was adjusted to the optimum temperature of the particular lyase being assayed. […] A measured quantity of lyase was added, bringing the final volume to 400 μl and the cuvette was gently mixed. The microcuvette was then immediately returned to the spectrophotometer and the change of absorbance at 232 nm was measured at 10 seconds intervals over 3 min. […] The specific activity was then calculated by dividing the micromoles of product produced per minute by the milligrams of protein in the cuvette. […] G., and Linhardt, R. J. (1989) Carbohydr. Res. 190, 219-233. Protein concentration was measured by the Bradford assay, Bradford, M. M. (1976) Anal. Biochem. 72, 248-254, based on a bovine serum albumin standard curve. […] The activities of each lyase (I acting on heparin, II acting on both heparin and heparan sulfate, and III acting on heparan sulfate) were then determined at different pH values. The buffer giving optimum activity for each heparin lyase was selected by testing buffers with buffering capacity near the pH optima calculated in the previous experiments. These buffers were: Tris-HCl, sodium phosphate, HEPES, MOPS, TES, and BTP-CHl. […] The heparin lyase assay solutions were made by diluting enzyme in 50 mM sodium phosphate buffer adjusted to the appropriate pH as previously described. Heparin lyase activity was determined in each buffer. Activity was assayed both immediately after addition to each buffer and following incubation for 24 h at 37° C. The salt concentration for optimum activity was investigated. Sodium chloride, potassium chloride, and sodium and potassium acetate were used to differentiate between ionic strength and specific ion affects. […] The temperature was adjusted in a temperature-regulated spectrophotometer and equilibrated for 10 min before the assay was started. Michaelis-Menten constants were determined using the optimized conditions. The final absorbance value for total depolymerization was divided by 20 to find a value that represented 5% reaction completion. The purified lyase preparations were diluted so that 5% of total depolymerization would be reached only at the end of a 3-min assay. The reaction velocities at specific molar concentrations for each lyase and their substrates were used for kinetic analysis using EZ-FIT hyperbolic curve-fitting program of […]. (1988) Anal. Biochem. 174, 437-447). Substrate solutions were prepared from 50 mg/ml heparin and 40 mg/ml for heparan sulfate stock solutions. […] The amount of purified lyase used was sufficient for complete depolymerization of heparin or heparan sulfate substrates within 30 min. The initial rate of depolymerization of each polysaccharide was measured, the reaction was then continued for 24 h, and the final level of polysaccharide depolymerization was assessed by measuring the final absorbance at 232 nm and expressed as percent activity.

Data set [5] in a line: Activity remaining after incubation in buffers for 24 h at 37° C. It is filed as physicochemical. The note with it: MOPS, TES, and HEPES, toward both heparin and heparan sulfate. As for the experimental part:
The buffer giving optimum activity for each heparin lyase was selected by testing buffers with buffering capacity near the pH optima calculated in the previous experiments. These buffers were: Tris-HCl, sodium phosphate, HEPES, MOPS, TES, and BTP-CHl. Each buffer was prepared at 50 mM, and its pH was adjusted with hydrochloric acid or sodium hydroxide to 6.9 for heparin lyase II acting on heparin, 7.15 for heparin lyase I, 7.3 for heparin lyase II acting on heparan sulfate, and 7.6 for heparin lyase III. The heparin lyase assay solutions were made by diluting enzyme in 50 mM sodium phosphate buffer adjusted to the appropriate pH as previously described. Heparin lyase activity was determined in each buffer. Activity was assayed both immediately after addition to each buffer and following incubation for 24 h at 37° C.

B1: Heparin lyase II: heparin lyase II (heparinase II, no EC number) purified to homogeneity from Flavobacterium heparinum (protein, UniProt C6XZB6 26-772, looked up)
Heparin and heparin-sulfate …: QTKADVVWKDVDGVSMPIPPKTHPRLYLREQQVPDLKNRMNDPKLKKVWADMIKMQEDWKPADIPEVKDFRFYFNQKGLTVRVELMALNYLMTKDPKVGREAITSIIDTLETATFKPAGDISRGIGLFMVTGAIVYDWCYDQLKPEEKTRFVKAFVRLAKMLECGYPPVKDKSIVGHASEWMIMRDLLSVGIAIYDEFPEMYNLAAGRFFKEHLVARNWFYPSHNYHQGMSYLNVRFTNDLFALWILDRMGAGNVFNPGQQFILYDAIYKRRPDGQILAGGDVDYSRKKPKYYTMPALLAGSYYKDEYLNYEFLKDPNVEPHCKLFEFLWRDTQLGSRKPDDLPLSRYSGSPFGWMIARTGWGPESVIAEMKVNEYSFLNHQHQDAGAFQIYYKGPLAIDAGSYTGSSGGYNSPHNKNFFKRTIAHNSLLIYDPKETFSSSGYGGSDHTDFAANDGGQRLPGKGWIAPRDLKEMLAGDFRTGKILAQGFGPDNQTPDYTYLKGDITAAYSAKVKEVKRSFLFLNLKDAKVPAAMIVFDKVVASNPDFKKFWLLHSIEQPEIKGNQITIKRTKNGDSGMLVNTALLPDAANSNITSIGGKGKDFWVFGTNYTNDPKPGTDEALERGEWRVEITPKKAAAEDYYLNVIQIADNTQQKLHEVKRIDGDKVVGVQLADRIVTFSKTSETVDRPFGFSVVGKGTFKFVMTDLLPGTWQVLKDGKILYPALSAKGDDGALYFEGTEGTYRFLR
In the case of B1, the substrates acted on result in data set [1] is “act on both heparin and heparan sulfate”. Moreover, in data set [1] (10 mM calcium chloride, 50 mM BTP-HCl), the “effect of calcium on activity (increase)” value is given as “dramatically reduced”. In data set [1] (acting on both heparin and heparan sulfate), the “effect of divalent metal ions on activity (all metals tested)” value is given as “inhibition by all of the metals tested except for 10 μM copper”. For the same molecule, the “effect of added salt on activity” value is given as “decrease in activity; also recorded: decreases” in data set [1] and “not observed” in data set [1] (listed as heparinase II). This molecule came in with an activity retained in data set [2] of 70%. For the same molecule, the “pI (isoelectric point)” value in data set [3] was “around 8.9”; in data set [3] (listed as heparin lyase II), 8.9-9.1. Besides, the “initial rate on heparan sulfate relative to heparin” value in data set [4] amounted to 1.7 times. Moreover, the “Unit/mg (specific activity)” value in data set [4] (final GPC-HPLC purification step, acting on heparan sulfate) was 36.5 Unit/mg. Further, the “average number of sites acted at in the heparan sulfate polymer” value in data set [4] (final level of depolymerization, 24 h) is 25 sites. Moreover, in data set [4] (heparan sulfate, 50 mM buffer at optimum pH), the “initial activity in six buffers (Tris-HCl, sodium phosphate, HEPES, MOPS, TES, BTP-HCl)” value is “marked reduction of activity in MOPS, TES, and HEPES”. In data set [4] (heparan sulfate, 50 mM sodium phosphate at optimum pH, 15-55° C.), the “temperature for maximum activity” value is 40 °C. For the same molecule, the Km stood at 11.2 ± 2.18 µM in data set [4] (heparan sulfate, II: 35° C., pH 6.9, III: 35° C., pH 7.6, value ± standard error, read-out: Km(app)) and 43.4 µM in data set [4] (with heparan sulfate, read-out: Km (Michelis-Menton constant, summary)). The “optimum temperature (summary)” value in data set [4] (heparan sulfate, activity greater at higher temperatures but stability reduced) was 35 °C. Moreover, the Vmax in data set [4] (heparan sulfate, optimized conditions, value ± standard error) is 28.6 ± 1.26 μmol/min mg protein. Moreover, the “pH optimum for activity” value in data set [4] (on heparan sulfate) was 6.9. In data set [4] (purified lyase, toward heparan sulfate), this molecule gave a specific activity of 36.5 units/mg. Moreover, the “Km (Michelis-Menton constant, summary)” value in data set [4] (with heparan sulfate) stood at 0.869 mg/mL. For the same molecule, in data set [4] (with heparan sulfate), the “V(max) (summary)” value is recorded as 46.95. Besides, the “retention of activity after incubation” value in data set [5] is 30-70%.
